Data on one molecule can be found in publication PMC8313009.

The target in experiment [1] is Complement C3b (human) (UniProt P01024). Description: ELISA; competition; heparin-binding plates coated with 25 ug/ml human C3b together with 40 ug/ml kidney heparan sulfate; FH fixed at 16 nM with rFHR-5 at 7-221 nM (dimer), 2 h room temperature, 5% BSA, 100 mM NaCl, 50 mM NaOAc, pH 7.3; bound FH detected with monoclonal anti-FH; FH binding without rFHR-5 = 100%. (In general: In an ELISA, binding on a coated surface is turned into a signal by an enzyme label.)

For experiment [2] the target is unchanged. The experiment is described as follows: ELISA; competition; heparin-binding plates coated with 25 ug/ml human C3b alone; FH fixed at 16 nM with rFHR-5 at 7-221 nM (dimer), 2 h room temperature, 5% BSA, 100 mM NaCl, 50 mM NaOAc, pH 7.3; bound FH detected with monoclonal anti-FH; FH binding without rFHR-5 = 100%.

B1: Recombinant complement factor H-related protein 5 (natural protein)
chain: EGTLCDFPKIHHGFLYDEEDYNPFSQVPTGEVFYYSCEYNFVSPSKSFWTRITCTEEGWSPTPKCLRMCSFPFVKNGHSESSGLIHLEGDTVQIICNTGYSLQNNEKNISCVERGWSTPPICSFTKGECHVPILEANVDAQPKKESYKVGDVLKFSCRKNLIRVGSDSVQCYQFGWSPNFPTCKGQVRSCGPPPQLSNGEVKEIRKEEYGHNEVVEYDCNPNFIINGPKKIQCVDGEWTTLPTCVEQVKTCGYIPELEYGYVQPSVPPYQHGVSVEVNCRNEYAMIGNNMITCINGIWTELPMCVATHQLKRCKIAGVNIKTLLKLSGKEFNHNSRIRYRCSDIFRYRHSVCINGKWNPEVDCTEKREQFCPPPPQIPNAQNMTTTVNYQDGEKVAVLCKENYLLPEAKEIVCKDGRWQSLPRCVESTAYCGPPPSINNGDTTSFPLSVYPPGSTVTYRCQSFYKLQGSVTVTCRNKQWSEPPRCLDPCVVSEENMNKNNIQLKWRNDGKLYAKTGDAVEFQCKFPHKAMISSPPFRAICQEGKFEYPICE
As to B1, the percent of FH binding to surface C3b with kidney HS left at a 1:1 molar ratio of rFHR-5 and FH with Complement C3b (human) [1] is 50%. The percent of FH binding to surface C3b left at a 1:1 molar ratio of rFHR-5 and FH with Complement C3b (human) [2] turned out to be 80%.
